Measured values reported in FireProtDB (doi:10.1002/cbic.201402128).
Several values for one entry are separate records, joined by “and”; a condition that tells them apart may be missing. Equal values may be shown once.

Conditions: Sphingobium indicum (strain DSM 16413 / CCM 7287 / MTCC 6362 / UT26 / NBRC 101211 / UT26S); pH 7.5; Thermal; fluorescence; Na-Hepes 50 mM; reversible: no; whole UniProt chain shown

B1: Haloalkane dehalogenase wild type, D4Z2G1 (protein)
chain: MSLGAKPFGEKKFIEIKGRRMAYIDEGTGDPILFQHGNPTSSYLWRNIMPHCAGLGRLIACDLIGMGDSDKLDPSGPERYAYAEHRDYLDALWEALDLGDRVVLVVHDWGSALGFDWARRHRERVQGIAYMEAIAMPIEWADFPEQDRDLFQAFRSQAGEELVLQDNVFVEQVLPGLILRPLSEAEMAAYREPFLAAGEARRPTLSWPRQIPIAGTPADVVAIARDYAGWLSESPIPKLFINAEPGALTTGRMRDFCRTWPNQTEITVAGAHFIQEDSPDEIGAAIAAFVRRLRPA
- Tm: 51 °C and 49 °C
